# Source: patent US20120021972A1 (CADILA HEALTHCARE, published 2012)
# Starred links: 1 amine or outer side, 2 acyl side, 3 side chain; linkers in the order of their positions; H or OH if unused. Non-standard residues stand in square brackets, D forms with d. No end group written: not given here. NMe2F‑APPA = N-methyl-2-amino-5-(2-fluorophenyl)pentanoic acid, CN([C@@H](CCCc1ccccc1F)C(=O)[*:2])[*:1]; 2,4‑diF‑APPA = 2-amino-5-(2,4-difluorophenyl)pentanoic acid, O=C([C@H](CCCc1ccc(F)cc1F)N[*:1])[*:2]; AMCB = 2-amino-5-(4-chloro-2-methylphenyl)pentanoic acid, Cc1cc(Cl)ccc1CCC[C@H](N[*:1])C(=O)[*:2]; ACPP = 2-amino-5-(3-chlorophenyl)pentanoic acid, O=C([C@H](CCCc1cccc(Cl)c1)N[*:1])[*:2]; 2F,4CF3‑APPA = 2-amino-5-(2-fluoro-4-(trifluoromethyl)phenyl)pentanoic acid; Bip(2'-Et-4'-OMe) = CCc1cc(OC)ccc1-c1ccc(C[C@H](N)C(=O)O)cc1; Nva(5-(3,5-Me2Ph)) = Cc1cc(C)cc(CCC[C@H](N)C(=O)O)c1; αMePhe(2-F) = C[C@](N)(Cc1ccccc1F)C(=O)O; NMeBip(OMe) = N-methylated Bip(OMe); hhPhe = N[C@@H](CCCc1ccccc1)C(=O)O; 2,4‑diCl‑APPA = not defined here; aThr = C[C@H](O)[C@H](N)C(=O)O; αMeP = C[C@@]1(C(=O)O)CCCN1; NMeAPPA = not defined here; Ac5c = NC1(C(=O)O)CCCC1; CNB = not defined here; Aib = CC(C)(N)C(=O)O
# Biological target: human glucagon receptor (human, UniProt P47871 26-477)
# Assay: cell-based or functional assay
Binder,"inhibition of cAMP production, 1 nM","inhibition of cAMP production, 10 nM","inhibition of cAMP production, 100 nM","inhibition of cAMP production, 1 µM","inhibition of cAMP production, 10 µM"
H[αMeP]QGTFTSD[Bip(2'-Et-4'-OMe)][hhPhe] [Seq. ID. No. 9: H-(α-Me-Pro)-QGTFTSD-Bip(OMe)-(APPA)],5 pmol/ml/µg prt,3 pmol/ml/µg prt,0 pmol/ml/µg prt,0 pmol/ml/µg prt,0 pmol/ml/µg prt
"H[Aib]QGTFTSD[Bip(2'-Et-4'-OMe)][2F,4CF3‑APPA] [Seq. ID. No. 65: H-Aib-QGTFTSD-Bip(OMe)-(2F,4CF3-APPA)]",10 pmol/ml/µg prt,8 pmol/ml/µg prt,6 pmol/ml/µg prt,4 pmol/ml/µg prt,1 pmol/ml/µg prt
"H[Ac5c]QGTFTSD[Bip(2'-Et-4'-OMe)][Nva(5-(3,5-Me2Ph))] [Seq. ID. No. 26: H-(APP)-QGTFTSD-Bip(OMe)-(ADMP)]",15 pmol/ml/µg prt,12 pmol/ml/µg prt,8 pmol/ml/µg prt,4 pmol/ml/µg prt,2 pmol/ml/µg prt
H-HSQGTFTSD[Bip(2'-Et-4'-OMe)][hhPhe]-NH2 [Seq. ID. No. 5: HSQGTFTSD-Bip(OMe)-(APPA)],6 pmol/ml/µg prt,5 pmol/ml/µg prt,3 pmol/ml/µg prt,0 pmol/ml/µg prt,0 pmol/ml/µg prt
H[Aib][CNB]GTFTSD[Bip(2'-Et-4'-OMe)][ACPP] (reading uncertain) [Seq. ID. No. 31: H-Aib-(CNB)-GTFTSD-Bip(OMe)-(ACPP)],6 pmol/ml/µg prt,5 pmol/ml/µg prt,2 pmol/ml/µg prt,0 pmol/ml/µg prt,0 pmol/ml/µg prt
H[Ac5c]QGTFTSD[Bip(2'-Et-4'-OMe)][AMCB] [Seq. ID. No. 28: H-(APP)-QGTFTSD-Bip(OMe)-(AMCB)],14 pmol/ml/µg prt,11 pmol/ml/µg prt,7 pmol/ml/µg prt,3 pmol/ml/µg prt,0 pmol/ml/µg prt
H[Aib][CNB]G[aThr][αMePhe(2-F)][aThr]SD[NMeBip(OMe)][NMeAPPA] (reading uncertain) [Seq. ID. No. 142: H-Aib-(CNB)-G-T(allo)-(α-Me-2F-Phe)-T(allo)-SD-((NMe)Bip(OMe))-((NMe)(APPA))],10 pmol/ml/µg prt,8 pmol/ml/µg prt,6 pmol/ml/µg prt,2 pmol/ml/µg prt,0 pmol/ml/µg prt
H[Aib][CNB]G[aThr][αMePhe(2-F)][aThr]SD[Bip(2'-Et-4'-OMe)][NMe2F‑APPA] (reading uncertain) [Seq. ID. No. 132: H-Aib-(CNB)-G-T(allo)-(α-Me-2F-Phe)-T(allo)-SD-Bip(OMe)-((NMe)(2F-APPA))],15 pmol/ml/µg prt,12 pmol/ml/µg prt,8 pmol/ml/µg prt,4 pmol/ml/µg prt,2 pmol/ml/µg prt
"HSQGTFTSD[Bip(2'-Et-4'-OMe)][2F,4CF3‑APPA] [Seq. ID. No. 49: HSQGTFTSD-Bip(OMe)-(2F, 4CF3-APPA)]",10 pmol/ml/µg prt,8 pmol/ml/µg prt,6 pmol/ml/µg prt,2 pmol/ml/µg prt,0 pmol/ml/µg prt
"H[Aib][CNB]GTFTSD[Bip(2'-Et-4'-OMe)][2,4‑diF‑APPA] (reading uncertain) [Seq. ID. No. 78: H-Aib-(CNB)-GTFTSD-Bip(OMe)-(2,4-diF-APPA)]",22 pmol/ml/µg prt,21 pmol/ml/µg prt,20 pmol/ml/µg prt,18 pmol/ml/µg prt,18 pmol/ml/µg prt
"HSQGTFTSD[Bip(2'-Et-4'-OMe)][2,4‑diCl‑APPA] (reading uncertain) [Seq. ID. No. 51: HSQGTFTSD-Bip(OMe)-(2,4-diCl-APPA)]",5 pmol/ml/µg prt,3 pmol/ml/µg prt,0 pmol/ml/µg prt,0 pmol/ml/µg prt,0 pmol/ml/µg prt
